Reference: patent US20080009025A1, “PROTEIN KINASE REGULATION” (priority 1999, published 2008)

T1: GST-PDK1 (Homo sapiens, UniProt O15530)
T1 construct: Full length PDK1 (residues 1-556); made in house; host or cells: 293 cells
T1 sequence (O15530 1-556): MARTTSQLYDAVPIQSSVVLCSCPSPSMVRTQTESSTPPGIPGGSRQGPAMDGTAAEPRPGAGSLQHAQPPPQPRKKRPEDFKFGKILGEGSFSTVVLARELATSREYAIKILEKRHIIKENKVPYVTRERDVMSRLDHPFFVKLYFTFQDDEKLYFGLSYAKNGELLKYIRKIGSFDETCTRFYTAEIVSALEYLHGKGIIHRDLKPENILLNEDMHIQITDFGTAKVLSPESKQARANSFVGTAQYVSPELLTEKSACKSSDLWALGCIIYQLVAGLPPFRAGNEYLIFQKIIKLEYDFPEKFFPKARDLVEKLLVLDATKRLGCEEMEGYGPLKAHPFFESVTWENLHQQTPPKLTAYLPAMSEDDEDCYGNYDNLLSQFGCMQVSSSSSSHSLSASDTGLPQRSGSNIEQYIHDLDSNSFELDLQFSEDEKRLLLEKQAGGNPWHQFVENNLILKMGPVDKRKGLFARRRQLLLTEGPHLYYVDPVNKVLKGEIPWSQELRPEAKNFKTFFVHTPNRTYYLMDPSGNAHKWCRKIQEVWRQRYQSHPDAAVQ


Experiments:
[1] = molecular target: T1, GST-PDK1; assay: Thermal denaturation of PDK1 (TM50); type: biochemical; conditions: heated 2 min; no PIFtide
Description: A further aspect of the invention provides the use of an interacting polypeptide as defined above, for example comprising the amino acid sequence Phe/Tyr-Xaa-Xaa-Phe/Tyr or an interacting compound of the invention in a method of stabilising a protein kinase having a hydrophobic pocket in the position equivalent to the hydrophobic pocket of Protein Kinase A (PKA) that is defined by residues including Lys76, Leu116, Val80 and/or Lys111 of full-length mouse PKA, wherein the protein kinase is exposed to the compound or polypeptide. Stabilisation may be measured by measuring the TM50 value. The TM50 value is the temperature at which heating for two minutes produces a 50% reduction in protein kinase activity (measured using any appropriate substrate) compared with the protein kinase activity before such heating, as described in Example 2. An increase in the TM50 value, for example by at least about 1, 2, 3, 4, 5, 6, 7, 8, 9, 10 or 15° C. indicates stabilisation.
FIG. 12. PDK1 is activated and stabilised through its interaction with PIFtide. (A) GST-PDK1 activity was measured in the presence of increasing concentrations of wild type (wt) PIFtide (closed circles) or a mutant D978A PIFtide (open circles) using the synthetic peptide substrate termed T308tide, as described in Material and Methods. The data was fitted to a hyperbola using the Kaleidagraph™ software. […]

[2] = tested on: SGK1[T422D]; assay: Activation of SGK1[T422D] by PDK1 PIF pocket mutants; type: biochemical
Protocol: (§1) FIG. 20. Effect of PIFtide on the activation of S6K1 and SGK1 by PDK1 PIF pocket mutants (155A, 115A, 119A, 150A). GST-PDK1, GST-PDK1 L155E, 155A, 115A, 119A and 150A were tested for their ability to activate His-S6K1 412E and GST-SGK1 422D. The phosphorylation and activation of substrates was performed as described in FIG. 17. When PIFtide was included in the reaction, it was pre-incubated on ice for ˜15 min until the reaction was initiated with the addition of ATP-Mg.
(§2) Activation of AGC kinase PDK1 substrates. Phosphorylation reactions were carried out as above except that non-radioactive ATP replaced [γ-^32P]ATP. Following 10 min at 30° C., cocktail (30 μl) containing 50 mM Tris-HCl pH 7.5, 0.1% (by vol) 2-mercaptoethanol, 10 mM magnesium chloride, […], 0.5 μM microcystin-LR and 100 μM peptide substrate crosstide (GRPRTSSFAEG) and [γ-^32P]ATP (˜600 c.p.m./pmol). Reactions were stopped by the addition of 25 μl of 0.2 M EDTA pH 8.0, spotted onto P81 phosphocellulose paper, washed and analysed as described for the assay of MAP kinase. The amount of PDK1 was in the assay was varied so that the assay was in the linear range. One unit of activity is deficed as phosphorylation 1 nmol of substrate in 1 min.

[3] = tested on: S6K1[412E]; assay: Activation of S6K1[412E] by PDK1 PIF pocket mutants; type: biochemical, human
Protocol: as §1, §2

Row | Molecule | TM50 value [1] [°C] | rate of activation of SGK1[T422D] compared with wild type PDK1 [2] | rate of activation of S6K1[412E] compared with wild type PDK1 [3]
1 | L155D: PDK1 mutant, Leu155 to Asp (protein, left off: small tags and cut ends, PDK1 mutant, Leu155 to Asp) MARTTSQLYDAVPIQSSVVLCSCPSPSMVRTQTESSTPPGIPGGSRQGPAMDGTAAEPRPGAGSLQHAQPPPQPRKKRPEDFKFGKILGEGSFSTVVLARELATSREYAIKILEKRHIIKENKVPYVTRERDVMSRLDHPFFVKLYFTFQDDEKDYFGLSYAKNGELLKYIRKIGSFDETCTRFYTAEIVSALEYLHGKGIIHRDLKPENILLNEDMHIQITDFGTAKVLSPESKQARANSFVGTAQYVSPELLTEKSACKSSDLWALGCIIYQLVAGLPPFRAGNEYLIFQKIIKLEYDFPEKFFPKARDLVEKLLVLDATKRLGCEEMEGYGPLKAHPFFESVTWENLHQQTPPKLTAYLPAMSEDDEDCYGNYDNLLSQFGCMQVSSSSSSHSLSASDTGLPQRSGSNIEQYIHDLDSNSFELDLQFSEDEKRLLLEKQAGGNPWHQFVENNLILKMGPVDKRKGLFARRRQLLLTEGPHLYYVDPVNKVLKGEIPWSQELRPEAKNFKTFFVHTPNRTYYLMDPSGNAHKWCRKIQEVWRQRYQSHPDAAVQ | 42 | – | –
2 | K115A: PDK1 mutant, Lys115 to Ala in the PIF-binding pocket (protein, left off: small tags and cut ends) MARTTSQLYDAVPIQSSVVLCSCPSPSMVRTQTESSTPPGIPGGSRQGPAMDGTAAEPRPGAGSLQHAQPPPQPRKKRPEDFKFGKILGEGSFSTVVLARELATSREYAIKILEARHIIKENKVPYVTRERDVMSRLDHPFFVKLYFTFQDDEKLYFGLSYAKNGELLKYIRKIGSFDETCTRFYTAEIVSALEYLHGKGIIHRDLKPENILLNEDMHIQITDFGTAKVLSPESKQARANSFVGTAQYVSPELLTEKSACKSSDLWALGCIIYQLVAGLPPFRAGNEYLIFQKIIKLEYDFPEKFFPKARDLVEKLLVLDATKRLGCEEMEGYGPLKAHPFFESVTWENLHQQTPPKLTAYLPAMSEDDEDCYGNYDNLLSQFGCMQVSSSSSSHSLSASDTGLPQRSGSNIEQYIHDLDSNSFELDLQFSEDEKRLLLEKQAGGNPWHQFVENNLILKMGPVDKRKGLFARRRQLLLTEGPHLYYVDPVNKVLKGEIPWSQELRPEAKNFKTFFVHTPNRTYYLMDPSGNAHKWCRKIQEVWRQRYQSHPDAAVQ | – | markedly reduced | only marginally lower
3 | Q150A: PDK1 mutant, Gln150 to Ala (protein, left off: small tags and cut ends, PDK1 mutant, Gln150 to Ala) MARTTSQLYDAVPIQSSVVLCSCPSPSMVRTQTESSTPPGIPGGSRQGPAMDGTAAEPRPGAGSLQHAQPPPQPRKKRPEDFKFGKILGEGSFSTVVLARELATSREYAIKILEKRHIIKENKVPYVTRERDVMSRLDHPFFVKLYFTFADDEKLYFGLSYAKNGELLKYIRKIGSFDETCTRFYTAEIVSALEYLHGKGIIHRDLKPENILLNEDMHIQITDFGTAKVLSPESKQARANSFVGTAQYVSPELLTEKSACKSSDLWALGCIIYQLVAGLPPFRAGNEYLIFQKIIKLEYDFPEKFFPKARDLVEKLLVLDATKRLGCEEMEGYGPLKAHPFFESVTWENLHQQTPPKLTAYLPAMSEDDEDCYGNYDNLLSQFGCMQVSSSSSSHSLSASDTGLPQRSGSNIEQYIHDLDSNSFELDLQFSEDEKRLLLEKQAGGNPWHQFVENNLILKMGPVDKRKGLFARRRQLLLTEGPHLYYVDPVNKVLKGEIPWSQELRPEAKNFKTFFVHTPNRTYYLMDPSGNAHKWCRKIQEVWRQRYQSHPDAAVQ | – | markedly reduced | only marginally lower
4 | I119A: PDK1 mutant, Ile119 to Ala (protein, left off: small tags and cut ends, PDK1 mutant, Ile119 to Ala) MARTTSQLYDAVPIQSSVVLCSCPSPSMVRTQTESSTPPGIPGGSRQGPAMDGTAAEPRPGAGSLQHAQPPPQPRKKRPEDFKFGKILGEGSFSTVVLARELATSREYAIKILEKRHIAKENKVPYVTRERDVMSRLDHPFFVKLYFTFQDDEKLYFGLSYAKNGELLKYIRKIGSFDETCTRFYTAEIVSALEYLHGKGIIHRDLKPENILLNEDMHIQITDFGTAKVLSPESKQARANSFVGTAQYVSPELLTEKSACKSSDLWALGCIIYQLVAGLPPFRAGNEYLIFQKIIKLEYDFPEKFFPKARDLVEKLLVLDATKRLGCEEMEGYGPLKAHPFFESVTWENLHQQTPPKLTAYLPAMSEDDEDCYGNYDNLLSQFGCMQVSSSSSSHSLSASDTGLPQRSGSNIEQYIHDLDSNSFELDLQFSEDEKRLLLEKQAGGNPWHQFVENNLILKMGPVDKRKGLFARRRQLLLTEGPHLYYVDPVNKVLKGEIPWSQELRPEAKNFKTFFVHTPNRTYYLMDPSGNAHKWCRKIQEVWRQRYQSHPDAAVQ | – | markedly reduced | only marginally lower
5 | L155A: PDK1 mutant, Leu155 to Ala (protein, left off: a dimerising Fc or GST; small tags and cut ends, PDK1 mutant, Leu155 to Ala) MARTTSQLYDAVPIQSSVVLCSCPSPSMVRTQTESSTPPGIPGGSRQGPAMDGTAAEPRPGAGSLQHAQPPPQPRKKRPEDFKFGKILGEGSFSTVVLARELATSREYAIKILEKRHIIKENKVPYVTRERDVMSRLDHPFFVKLYFTFQDDEKAYFGLSYAKNGELLKYIRKIGSFDETCTRFYTAEIVSALEYLHGKGIIHRDLKPENILLNEDMHIQITDFGTAKVLSPESKQARANSFVGTAQYVSPELLTEKSACKSSDLWALGCIIYQLVAGLPPFRAGNEYLIFQKIIKLEYDFPEKFFPKARDLVEKLLVLDATKRLGCEEMEGYGPLKAHPFFESVTWENLHQQTPPKLTAYLPAMSEDDEDCYGNYDNLLSQFGCMQVSSSSSSHSLSASDTGLPQRSGSNIEQYIHDLDSNSFELDLQFSEDEKRLLLEKQAGGNPWHQFVENNLILKMGPVDKRKGLFARRRQLLLTEGPHLYYVDPVNKVLKGEIPWSQELRPEAKNFKTFFVHTPNRTYYLMDPSGNAHKWCRKIQEVWRQRYQSHPDAAVQ | – | markedly reduced | only marginally lower
